Test results from patent US20040254351A1.

Biological target: G-CSF receptor
Assay: cell-based or functional assay

Substance | EC50/Neupogen (reporter activity in cells expressing the G-CSF receptor) (ratio to Neupogen)
G-CSF[C17A] (from UniProt P09919 31-207) (ligand) | 0.66
Wild-type G-CSF (from UniProt P09919 31-207) (ligand) | 0.38
